Experimental data reported in US20140057332A1, “GLUCO-OLIGOSACCHARIDE OXIDASES FROM ACREMONIUM STRICTUM AND USES THEREOF” (The Governing Council of the University of Toronto, priority 2011, published 2014).

How the values were obtained:
[1] = Chromogenic H2O2 oxidase assay / kinetic analysis on maltose
Procedure: (§2) A chromogenic assay was used to measure hydrogen peroxide production (15). Reactions contained 0.1 mM 4aminoantipyrine (4AA), 1 mM phenol, 0.5 U horseradish peroxidase, 40 mM Tris-HCl (pH 8.0), and different substrates were initiated by adding 0.2 μg of enzymes to the 250 μL reaction mixture. The production of H2O2 was coupled to the oxidation of 4aminoantipyrine by horseradish peroxidase and detected at 500 nm. Reactions were incubated at 37° C. for 15 min to measure the specific activity of GOOX on 10 mM of monosaccharide or 1 mM of oligosaccharide.
(§3) At least 12 substrate concentrations were included to obtain kinetic parameters for each substrate. Initial rates were obtained by measuring reaction products every 30 s for 15 min at 37° C. and pH 8.0, and kinetic parameters were calculated using the Michaelis-Menten equation (GraphPad Prism5 Software).

[2] = Chromogenic H2O2 oxidase assay / kinetic analysis on galactose
Procedure: as §2, §3

[3] = Chromogenic H2O2 oxidase assay / kinetic analysis on xylotriose
Optimum pH for activity = type: biochemical; conditions: 25 mM cellobiose, 37° C., Britton-Robinson buffer pH 5 to 12
Procedure: (§1) Temperature stability was measured by incubating 0.2 μg of enzyme for 1 h at nine different temperatures ranging from 25 to 60° C. (Table 9). While GOOX-VN and the variant GOOX-V were stable at 45° C., both lost more than 70% activity after incubation for 1 h at 50° C. […] The pH stability of GOOX-VN was determined by incubating 0.2 μg of the enzyme for 1 h at pH values from pH 3 to 12. After 1 h of incubation, GOOX-VN retained more than 80% activity at pH 5 to pH 10, 40% activity at pH 4, and less than 10% activity at pH values below 3 or above 11. Finally, the optimum pH for GOOX-VN activity was determined by incubating 0.1 μg of enzyme at 37° C. for up to 5 min with 25 mM cellobiose in 25 mM Britton-Robinson universal buffer solutions at pH 5 to 12. At regular time points, the chromogenic assay mix containing 400 mM potassium phosphate buffer pH 6, 0.1 mM 4-aminoantipyrine, 1 mM phenol, 3 U/ml horseradish peroxidase and 40 mM cellobiose was added to the reaction and was incubated for approximately 5 min at 37° C., until the chromogenic compound was detected.

[4] = Chromogenic H2O2 oxidase assay on xylopentaose; conditions: 1 mM xylopentaose; 37° C., 15 min
Procedure: as §2
(§4) An additional eight mutations, identified as Y72F, Y72A, E247A, E314A, W351A, N388S, Q353N, Q384A, were created in GOOX-VN to assess the influence of these residues on the substrate selectivity of GOOX-VN. […] The specific activity of each mutant was then measured at 37° C. for 15 min using 10 mM mono-sugars and 1 mM oligosaccharides as performed for Y300A, Y300N, and W351F (Table 11).

[5] = Chromogenic H2O2 oxidase assay / kinetic analysis on cellobiose
Procedure: as §2, §3

[6] = Chromogenic H2O2 oxidase assay on xylohexaose; conditions: 1 mM xylohexaose; 37° C., 15 min
Procedure: as §2, §4

[7] = Effect of deglycosylation with PNGaseF on enzyme activity; type: biochemical
Procedure: Approximately 2 μg of purified enzyme was treated with PNGaseF (New England Biolabs) using denaturing and native conditions. Samples that were deglycosylated using denaturing conditions were analysed by SDS PAGE, while samples deglycosylated using native conditions were used to evaluate the impact of glycosylation on enzyme activity. The activity of enzymes was measured on 10 mM maltose at 37° C. for 15 min. (Table 7). N-glycosylation was predicted by NetNGlyc (http://www.cbs.dtu.dk/services/NetNGlyc/) while O-glycosylation was predicted by OGPET (http://ogpet.utep.edu/OGPET/).

[8] = Chromogenic H2O2 oxidase assay / kinetic analysis on cellotriose
Procedure: as §2, §3

[9] = substrate: OC[C@H]1O[C@@H](O[C@H]2[C@H](O)[C@@H](O)[C@H](O[C@H]3[C@H](O)[C@@H](O)C(O)O[C@@H]3CO)O[C@@H]2CO)[C@H](O)[C@@H](O)[C@@H]1O; test: purified protein, by the assay type; conditions: other: 37° C., pH 8.0
Procedure: as §2, §3

[10] = substrate: OC[C@H]1O[C@@H](O[C@H]2[C@H](O)[C@@H](O)C(O)O[C@@H]2CO)[C@H](O)[C@@H](O)[C@@H]1O; test: purified protein, by the assay type; conditions: other: 37° C., pH 8.0
Procedure: as §2, §3

[11] = substrate: OC[C@H]1OC(O)[C@H](O)[C@@H](O)[C@@H]1O; test: purified protein, by the assay type; conditions: other: 37° C., pH 8.0
Procedure: as §2, §3

[12] = Chromogenic H2O2 oxidase assay / kinetic analysis on xylose
Procedure: as §2, §3

[13] = Chromogenic H2O2 oxidase assay / kinetic analysis on NAG
Procedure: as §2, §3

[14] = Temperature stability (residual activity on cellobiose); type: physicochemical; conditions: for Residual activity after 1 h: assay 1 mM cellobiose, 37° C., pH 8
Procedure: as §1

[15] = Chromogenic H2O2 oxidase assay / kinetic analysis on xylobiose
Procedure: as §2, §3

[16] = Chromogenic H2O2 oxidase assay on xylotetraose; conditions: 1 mM xylotetraose; 37° C., 15 min
Procedure: as §2, §4

[17] = Chromogenic H2O2 oxidase assay / kinetic analysis on glucose
Procedure: as §2, §3

[18] = 10 mM galactose, 37° C., 15 min
[19] = 1 mM xylotriose, 37° C., 15 min
[20] = 1 mM cellobiose, 37° C., 15 min
[21] = 1 mM cellotriose, 37° C., 15 min

- oxidation of galactose ([2]; after 3 min using 10 mM sugar): detected
- Activity, Deglycosylated ([7]; deglycosylated with PNGaseF (native conditions), 10 mM maltose, 15 min at 37° C., duplicate): 3.43 nmol/min
- Activity, Glycosylated ([7]; glycosylated enzyme, 10 mM maltose, 15 min at 37° C., duplicate): 3.51 nmol/min
- oxidation of xylose ([12]; after 3 min using 10 mM sugar): detected
- oxidation of NAG ([13]; after 3 min using 10 mM sugar): detected
B1: Acremonium strictum gluco-oligosaccharide oxidase GOOX-VN (type strain CBS 346.70, V38 and N388), SEQ ID NO. 2 (Sarocladium strictum; A38V/S388N) (protein)
chain: NSINACLAAADVEFHEEDSEGWEMDGTAFNLRVDYDPVAIAIPRSTEDIAAAVQCGLDAGVQISAKGGGHSYGSYGFGGEDGHLMLELDRMYRVSVDDDNVATIQGGARLGYTALELLDQGNRALTHGTCPAVGIGGHVLGGGYGFATHTHGLTLDWLVGATVVLADASIVHVSKTENADLFWALRGGGGGFAIVSEFEFNTFEAPEIITTYQVTTTWNRKQHVAGLKALQDWAENTMPRELSMRLEINANALNWEGNYFGNAKDLKKVLQPIMKKAGGKSTISKLVETDWYGQINTYLYGADLNITYNYDVHEYFYANSLTAPRLSDEAISAFVDYKFDNSSVRPGRGWWIQWDFHGGKNSALASHSNDETAYAHRDQLWLWQFYDNIYDYENNTSPYPESGFEFMQGFVATIEDTLPEDRKGKYFNYADTTLDKEEAQKLYWRGNLEKLQAIKAKYDPEDVFGNVVSVEPIA
- Specific Activity of Enzyme Variants ([1]; 1 mM maltose, 37° C., 15 min): 1.5 µmol/min/mg
- Specific activity Defined substrate concentration ([1]; 1 mM maltose, 37° C., 15 min): 1.53 µmol/mg/min
- Specific activity From Vmax ([1]; substrate maltose): 5.94 µmol/mg/min
- Specific Activity of Enzyme Variants [2, 18]: 0.5 µmol/min/mg
- Specific activity Defined substrate concentration [2, 18]: 0.52 µmol/mg/min
- Specific activity From Vmax ([2]; substrate galactose): 7.08 µmol/mg/min
- Specific Activity of Enzyme Variants [3, 19]: 7.5 µmol/min/mg
- Specific activity Defined substrate concentration [3, 19]: 7.48 µmol/mg/min
- Specific activity From Vmax ([3]; substrate xylotriose): 8.23 µmol/mg/min
- pH optimum (Optimum pH for activity): 10 pH
- Specific Activity of Enzyme Variants [4]: 10.8 µmol/min/mg
- Specific Activity of Enzyme Variants [5, 20]: 5.4 µmol/min/mg
- Specific activity Defined substrate concentration [5, 20]: 5.38 µmol/mg/min
- Specific activity From Vmax ([5]; substrate cellobiose): 6.18 µmol/mg/min
- Specific Activity of Enzyme Variants [6]: 11.0 µmol/min/mg
- loss in enzyme activity on deglycosylation ([7]; deglycosylation under native conditions): did not cause a detectable loss in enzyme activity
- Specific Activity of Enzyme Variants [8, 21]: 5.1 µmol/min/mg
- Specific activity Defined substrate concentration [8, 21]: 5.12 µmol/mg/min
- Specific activity From Vmax ([8]; substrate cellotriose): 5.96 µmol/mg/min
- Km [9]: 90 ± 10 µM
- kcat [9]: 6.02 ± 0.192 s⁻¹
- kcat/Km [9]: 70600 ± 8150 M⁻¹ s⁻¹
- Km [10]: 70 ± 10 µM
- kcat [10]: 6.25 ± 0.178 s⁻¹
- kcat/Km [10]: 95500 ± 13900 M⁻¹ s⁻¹
- Km [11]: 17360 ± 700 µM
- Specific Activity of Enzyme Variants ([12]; 10 mM xylose, 37° C., 15 min): 0.4 µmol/min/mg
- Specific activity Defined substrate concentration ([12]; 10 mM xylose, 37° C., 15 min): 0.42 µmol/mg/min
- Specific activity From Vmax ([12]; substrate xylose): 5.20 µmol/mg/min
- Specific Activity of Enzyme Variants ([13]; 10 mM NAG, 37° C., 15 min): 0.2 µmol/min/mg
- Specific activity Defined substrate concentration ([13]; 10 mM NAG, 37° C., 15 min): 0.25 µmol/mg/min
- Specific activity From Vmax ([13]; substrate NAG): 8.00 µmol/mg/min
- stability at 45° C. ([14]; 1 h at 45° C.): stable
- Residual activity after 1 h ([14]; incubation at 25° C.): 100%
- Residual activity after 1 h ([14]; incubation at 30° C.): 95%
- Residual activity after 1 h ([14]; incubation at 35° C.): 100%
- Residual activity after 1 h ([14]; incubation at 40° C.): 100%
- Residual activity after 1 h ([14]; incubation at 45° C.): 64%
- Residual activity after 1 h ([14]; incubation at 50° C.): 7%
- Residual activity after 1 h ([14]; incubation at 55° C.): <5%
- Residual activity after 1 h ([14]; incubation at 60° C.): <5%
- Specific Activity of Enzyme Variants ([15]; 1 mM xylobiose, 37° C., 15 min): 7.9 µmol/min/mg
- Specific activity Defined substrate concentration ([15]; 1 mM xylobiose, 37° C., 15 min): 7.92 µmol/mg/min
- Specific activity From Vmax ([15]; substrate xylobiose): 8.73 µmol/mg/min
- Specific Activity of Enzyme Variants [16]: 10.2 µmol/min/mg
- Specific Activity of Enzyme Variants ([17]; 10 mM glucose, 37° C., 15 min): 2.6 µmol/min/mg
- Specific activity Defined substrate concentration ([17]; 10 mM glucose, 37° C., 15 min): 2.62 µmol/mg/min
- Specific activity From Vmax ([17]; substrate glucose): 7.41 µmol/mg/min
